From patent US20200200749A1 (published 2020)

Tests used:
[1] = target: T1, EBOV GP (recombinant, full-length extracellular domain) (EBOV (Ebola Zaire), UniProt Q05320 33-650); assay: ELISA
T1 chain: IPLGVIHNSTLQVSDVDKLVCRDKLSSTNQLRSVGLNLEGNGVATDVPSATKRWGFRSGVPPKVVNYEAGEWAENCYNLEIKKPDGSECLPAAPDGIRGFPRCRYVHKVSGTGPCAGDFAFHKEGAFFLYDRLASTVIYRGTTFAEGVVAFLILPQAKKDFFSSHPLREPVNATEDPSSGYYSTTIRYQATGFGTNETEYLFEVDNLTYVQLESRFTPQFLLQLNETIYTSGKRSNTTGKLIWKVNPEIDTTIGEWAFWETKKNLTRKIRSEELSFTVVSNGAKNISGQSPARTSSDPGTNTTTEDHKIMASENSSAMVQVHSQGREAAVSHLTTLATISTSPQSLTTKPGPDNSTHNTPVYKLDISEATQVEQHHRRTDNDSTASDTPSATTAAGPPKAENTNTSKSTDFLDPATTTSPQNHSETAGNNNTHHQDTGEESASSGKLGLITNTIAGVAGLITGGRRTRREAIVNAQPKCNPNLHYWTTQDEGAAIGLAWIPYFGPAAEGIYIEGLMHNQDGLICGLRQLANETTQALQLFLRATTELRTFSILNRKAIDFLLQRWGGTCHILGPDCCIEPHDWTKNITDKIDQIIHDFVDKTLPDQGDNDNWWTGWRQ

[2] = target: T2, SUDV GP (recombinant) (SUDV (Sudan ebolavirus), UniProt Q66814 33-650); assay: ELISA
T2 chain: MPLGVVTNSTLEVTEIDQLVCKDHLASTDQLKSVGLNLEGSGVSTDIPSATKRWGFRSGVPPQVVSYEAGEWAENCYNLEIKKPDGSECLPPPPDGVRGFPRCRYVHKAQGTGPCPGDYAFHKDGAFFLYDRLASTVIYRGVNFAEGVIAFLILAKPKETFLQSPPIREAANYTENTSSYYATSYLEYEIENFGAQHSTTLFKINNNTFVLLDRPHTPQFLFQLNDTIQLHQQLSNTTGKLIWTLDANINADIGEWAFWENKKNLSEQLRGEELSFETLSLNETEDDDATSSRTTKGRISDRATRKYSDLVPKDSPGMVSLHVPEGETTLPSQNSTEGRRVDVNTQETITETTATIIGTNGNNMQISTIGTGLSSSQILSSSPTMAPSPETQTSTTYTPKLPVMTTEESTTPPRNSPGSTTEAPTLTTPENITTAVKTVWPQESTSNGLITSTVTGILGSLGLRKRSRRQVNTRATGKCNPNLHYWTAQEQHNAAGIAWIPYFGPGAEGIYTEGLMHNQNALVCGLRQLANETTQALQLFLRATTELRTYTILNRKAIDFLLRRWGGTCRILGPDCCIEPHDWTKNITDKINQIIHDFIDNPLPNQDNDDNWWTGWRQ

Binder	EC50 [1]	EC50 [2]
BDBV270 (antibody, V domains shown) VH: QVQLQESGPGLVKPSQTLSLTCTVSGASISRGLYYWSWIRQPAGKGLEWIGRIYTSGSINYNPSLKSRVTISVDTSKNQFSLRLSSVIATDTAVYYCVRDAPWGDFLTGYFGFYGMDVWGQGTLVTVSS VL: DIVMTQSPSSLSASVGDRVTITCRASQSINTYLNWYQQKPGKAPKFLIYAASSLHSGVPSRFSGSGSGTDFTLTINSLQPDDFATYYCQQSFTTPYTFGQGTKLEIK	0.173 µg/mL	0.159 µg/mL
BDBV324 (antibody, V domains shown) VH: QVQLVQSGAEVKKPGASVKVSCKTSGYTFTSFEIHWVRQGSGQGLEWMGRMNPKSGDTVSAQKFQGRVTLTRDTSINAAYMELGSLSSEDTAVYYCARGPHVGEVVPGLMAGTYYFPLDVWGQGTLVTVSS VL: DIQMTQSPSTLSASIGDRVTITCRASQSISRWLAWYQQKPGKAPKLLIYKVSDLQSGVPSRFSGSGYGTEFTLTIGSLQPDDLATYYCQQYDTYPWTFGQGTKLEIK	0.131 µg/mL	0.09 µg/mL
BDBV223 (antibody, V domains shown) VH: QVQLQQWGAGLLKPSETLSLTCAVYGGSFTTTYWNWIRQPPGKGLEWIGEVNYSGNANYNPSLKGRVAISVDTSKNQFSLRLNSVTAADTAIYYCTSRIRSHIAYSWKGDVWGKGTTVTVSS VL: EIVMTQSPGTLSLSPGERATLSCRASQSVPRNYIGWFQQKPGQAPRLLIYGASSRAAGFPDRFSGSGSGTDFTLTITRLEPEDFAMYYCHQYDRLPYTFGQGTKLEIK	0.024 µg/mL	0.106 µg/mL
BDBV289 (antibody, V domains shown) VH: QVQLVQSGAEVKKPGSSVKVSCKASGATFGSDTVTWVRQAPGQGLEWMGGIIPFFGEANYAQRFQGRVTITADKSTNTAYMELSSLRSEDTAVYFCARQINEMATFGEIHYYTYMDVWGQGTLVTVSS VL: GSELTQDPAVSVALGQTVRITCQGDSLRNYYASWYQQKPRQAPVLVFYGKNNRPSGIPDRFSGSSSGNTASLTISGAQAEDEADYYCNSRDSSSNHLVFGGGTKLTVLS	0.029 µg/mL	0.103 µg/mL
